Reference: patent US20220348651A1, “ENTPD2 ANTIBODIES, COMBINATION THERAPIES, AND METHODS OF USING THE ANTIBODIES AND COMBINATION THERAPIES” (Novartis AG, priority 2019, published 2022)
Numbering of substitutions follows the chain as printed.

T1: mouse ENTPD2 (Mus musculus, UniProt O55026)
T1 construct: expressed in transfected cells; host or cells: NIH/3T3 (retroviral transduction)
T1 sequence (O55026 1-495): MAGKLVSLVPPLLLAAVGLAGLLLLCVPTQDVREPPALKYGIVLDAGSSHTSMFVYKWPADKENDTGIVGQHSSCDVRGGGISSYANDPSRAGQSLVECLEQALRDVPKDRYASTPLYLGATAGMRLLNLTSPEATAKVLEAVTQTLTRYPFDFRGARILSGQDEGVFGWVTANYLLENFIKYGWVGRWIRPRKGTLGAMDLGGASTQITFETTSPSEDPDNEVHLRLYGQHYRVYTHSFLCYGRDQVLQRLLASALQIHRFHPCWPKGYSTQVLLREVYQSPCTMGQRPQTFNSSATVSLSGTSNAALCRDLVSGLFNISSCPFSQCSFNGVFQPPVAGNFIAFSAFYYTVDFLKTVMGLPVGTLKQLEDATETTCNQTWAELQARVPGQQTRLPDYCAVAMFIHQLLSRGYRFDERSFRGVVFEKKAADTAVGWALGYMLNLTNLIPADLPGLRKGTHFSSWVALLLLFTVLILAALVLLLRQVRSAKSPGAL

T2: recombinant human ENTPD2 (residues 29-462) (Homo sapiens, UniProt Q9Y5L3)
T2 construct: residues 29-462 of human or cyno ENTPD2 were cloned into expression vector; GP67 signal peptide (N); made in house; host or cells: High Five (Trichoplusia ni) insect cells, baculovirus
T2 sequence (Q9Y5L3 29-462): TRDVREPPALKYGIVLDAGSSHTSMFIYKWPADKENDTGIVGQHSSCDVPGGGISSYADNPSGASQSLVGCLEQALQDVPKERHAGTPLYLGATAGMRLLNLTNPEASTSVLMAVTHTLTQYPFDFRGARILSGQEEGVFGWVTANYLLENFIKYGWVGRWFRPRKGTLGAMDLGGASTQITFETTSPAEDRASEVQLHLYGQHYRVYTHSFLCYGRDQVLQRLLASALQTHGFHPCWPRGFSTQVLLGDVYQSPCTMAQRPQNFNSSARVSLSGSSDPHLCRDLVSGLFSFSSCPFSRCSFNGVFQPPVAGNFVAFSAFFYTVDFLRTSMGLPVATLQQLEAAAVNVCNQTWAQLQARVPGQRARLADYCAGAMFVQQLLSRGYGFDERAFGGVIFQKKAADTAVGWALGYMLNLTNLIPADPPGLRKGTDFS

T3: ENTPD2 (Homo sapiens, UniProt Q9Y5L3)
T3 sequence (Q9Y5L3 1-495): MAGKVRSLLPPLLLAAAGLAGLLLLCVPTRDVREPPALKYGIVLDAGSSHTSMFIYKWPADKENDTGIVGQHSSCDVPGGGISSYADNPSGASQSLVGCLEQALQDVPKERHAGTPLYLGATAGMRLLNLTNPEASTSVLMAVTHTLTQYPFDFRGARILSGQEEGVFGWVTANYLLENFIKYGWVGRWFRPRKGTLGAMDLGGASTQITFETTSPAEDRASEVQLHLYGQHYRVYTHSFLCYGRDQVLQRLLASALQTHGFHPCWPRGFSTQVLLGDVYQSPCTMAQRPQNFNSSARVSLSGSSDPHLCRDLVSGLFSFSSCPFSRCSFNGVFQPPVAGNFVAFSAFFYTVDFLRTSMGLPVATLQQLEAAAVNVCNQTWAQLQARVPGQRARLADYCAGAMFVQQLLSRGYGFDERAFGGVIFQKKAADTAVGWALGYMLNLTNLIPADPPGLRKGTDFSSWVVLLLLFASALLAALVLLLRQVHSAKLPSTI

B1: mAb14: anti-mouse ENTPD2 antibody, T30 variant of mAb13; HC SEQ ID NO: 211, LC SEQ ID NO: 204 (antibody)
heavy: QVQLVQSGAELKQPGQSVKISCKASGYTFWHYGMNWVKQAPGQGLKWMGWINTDTGNPTYADDFKGRFVFSLDTSVSTAYLQISNLKNEDTATYYCVRYGTLYSGYGFFFDSWGQGTLVTVSSAKTTAPSVYPLAPVCGDTTGSSVTLGCLVKGYFPEPVTLTWNSGSLSSGVHTFPAVLQSDLYTLSSSVTVTSSTWPSQSITCNVAHPASSTKVDKKIEPRGPTIKPCPPCKCPAPNLLGGPSVFIFPPKIKDVLMISLSPIVTCVVVDVSEDDPDVQISWFVNNVEVHTAQTQTHREDYNSTLRVVSALPIQHQDWMSGKEFKCKVNNKDLPAPIERTISKPKGSVRAPQVYVLPPPEEEMTKKQVTLTCMVTDFMPEDIYVEWTNNGKTELNYKNTEPVLDSDGSYFMYSKLRVEKKNWVERNSYSCSVVHEGLHNHHTTKSFSRTPGK
light: DIMMTQSPSSLSVSAGEKATITCKSSQSLFNSNTNKNYLNWYLQKPGQSPKLLFYYASTRHTGVPDRFIGSGSGTDFTLTITSVQDEDLADYYCQQWYSYPWTFGPGTKLEIKRADAAPTVSIFPPSSEQLTSGGASVVCFLNNFYPKDINVKWKIDGSERQNGVLNSWTDQDSKDSTYSMSSTLTLTKDEYERHNSYTCEATHKTSTSPIVKSFNRNEC
B2: mAb15: anti-mouse ENTPD2 antibody, T30 variant of mAb13; HC SEQ ID NO: 218, LC SEQ ID NO: 204 (antibody)
heavy: B1 heavy with W30H
light: B1 light
B3: mAb17: hybridoma-derived lead inhibitory anti-human ENTPD2 mAb; VH/VL DNA SEQ ID NO: 234/238 (antibody, V domains shown)
VH: EVQLQQFGAELVKPGASVKISCKASGYTFTDYNMDWVKQSHGKSLEWIGDINPKYDISTYNQQFKGKATLTVDKSSSTAYMELRSLTSEDTAVYYCARRGFFLYYGINYYYFDVWGAGTTVTVSS
VL: QIVLTQSPAIMSASLGEEITLTCSASSSVSYIHWYQQKSGTSPTLLIYSTSNLASGVPSRFSGSGSGTFYSLTISSVEAEDAADYYCHQWSSYPWTFGGGTKLEIK
B4: mAb19: anti-human ENTPD2 antibody of Table 1; VH SEQ ID NO: 250, VL SEQ ID NO: 257 (antibody, V domains shown)
VH: B3 VH with A16T, K54N, S58T, Q63R, L103P, I107N, N108S
VL: B3 VL with A9T, I32M, T44K, S92N
B5: mAb21: anti-human ENTPD2 antibody of Table 1; VH SEQ ID NO: 281, VL SEQ ID NO: 287 (antibody, V domains shown)
VH: EVQLQQSGPELVKPGASVKISCKTSGYTFTEYTMHWVKQSHGKSLEWIGGINPNNGITTYNQKFKGKATLTVDKSSSTAYMDLRSLTSEGSAVYYCARRGFPIYYYGTSLYYFDYWGQGTTLTVSS
VL: B3 VL with I32M, K38R, T44K, S49T
B6: mAb16: hybridoma-derived lead inhibitory anti-human ENTPD2 mAb; VH/VL DNA SEQ ID NO: 226/230 (antibody, V domains shown)
VH: DIQLQESGPGLVKPSQSLSLTCSVTGYSITSGYYWNWIRQFPGNKLEWMGYISYDGDNNYNPSLKNRISITRDTSKNQFFLKLSSVTTEDTATYYCAGGYYRYGLSYYYVMDYWGQGTSVTVSS
VL: DTVLTQSPASLAVSLGQRATISCKASQSVDYDGNSYMNWYQQKPGQPPKLLIYAASNLESGIPARFSGSGSGTDFTLNIHPVEEEDAATYYCQQSNEDPPTFGGGTKLEIK

Legend:
[1] = biological target: T1, mouse ENTPD2; assay: Mouse ENTPD2 NIH/3T3 cell-based functional assay; details: mouse ENTPD2 NIH/3T3 cells, 100 nM
From the text: (§1) Biochemical and cell-based functional assays were developed in-house to understand functional impact of anti-ENTPD2 Abs against purified extracellular domain of ENTPD2 (residues 29-462), as well as against the fully intact protein in the context of the native cell-based conformation. ENTPD2 hydrolyzes ATP to ADP, which can subsequently be detected using the HTRF Transcreener ADP2 TR-FRET Red Assay (BellBrook Labs, Madison, Wis.) where ENTPD2-produced ADP would compete with the ADP Tracer for binding to the anti-ADP-Tb antibody. The resulting signal is inversely proportional to the concentration of ADP in the sample.
To establish cell-based functional assays, human/cyno/mouse ENTPD2-engineered NIH/3T3 cells or RKO (ATCC, Manassa Va.) colorectal cancer cells with endogenous ENTPD2 expression were plated overnight at 150, 200 and 250 cells per well for NIH/3T3 mouse, cyno and human ENTPD2 lines, respectively, or 1000 cells per well for RKO in 384-well tissue culture plate, in 30 μl per well (Perkin Elmer, Waltham, Mass.). The following day cells were pre-incubated with Anti-ENTPD2 Abs in dose response for 60 min at 37° C., 5% CO2 (10 μl of 5× antibody dose per well), and subsequently stimulated with a final concentration of 10 μM ATP (Teknova, Hollister, Calif.) for 20 minutes at room temperature (10 μl of 5× (50 μM) ATP per well). Reactions were quenched with 40 mM EDTA/40 mM EGTA, 25 μl per well, and 15 μl of quenched media was transferred to low volume Proxiplates (PerkinElmer, Waltham, Mass.) for ADP detection. ADP production was detected with the Transcreener ADP2 TR-FRET Red Assay (BellBrook Labs, Madison, Wis.) with a final concentration of 4 nM ADP2 antibody and 13.4 nM of ADP Tracer in wells (4× solution was prepared and 5 μL of “Detection Reagent Mix” was added to the quenched conditioned media). Plates were incubated with detection reagents for 1 hour at room temperature prior to reading plates in HTRF mode.
(§2) HTRF signal (Emission at 620 nm and 665 nm) was assessed in both assays using the Envision plate reader in HTRF mode (Perkin Elmer, Waltham, Mass.). HTRF ratio was determined using the following formula: HTRF ratio=R=Emission at 665 nm/Emission at 620 nm×10,000. Subsequently % Residual Activity and % Inhibition were determined as follows:
(§3) Where R0% is the HTRF ratio of the negative control (0% enzyme activity), and R100% is the HTRF ratio of the positive control (100% enzyme activity). Data were analyzed in Microsoft Excel and graphed using GraphPad's Prism 7.0 software and IC50 values were obtained using non-linear regression, log (agonist) vs. response-variable slope (four parameters) analysis.
Anti-ENTPD2 mAb13 was identified as a mouse ENTPD2 selective Ab (FACS EC50 3-4 nM) with no binding to human or cyno ENTPD2.

[2] = biological target: T2, recombinant human ENTPD2 (residues 29-462); assay: Biochemical human ENTPD2 functional assay (Transcreener ADP2 TR-FRET); details: FIG. 15
From the text: as §1
To evaluate activity of anti-ENTPD2 Abs in the ENTPD2 biochemical assay, anti-ENTPD2 Abs and recombinant ENTPD2 (residues 29-462) were diluted in reaction buffer (50 mM HEPES, pH 7.1, 10 mM MgCl2, 0.01% BSA) to the desired concentration. 4 μL per well of the ENTPD2 solution and 2 μL per well of the Anti-ENTPD2 Ab solution were transferred into a ProxiPlate (PerkinElmer, Waltham, Mass.) and incubated for 30 min at room temperature. Reaction was then initiated via addition of 2 μl of ATP (final assay concentration of 1 μM), and the sample was incubated for 25 min at room temperature. […]
as §2, §3

[3] = biological target: T3, ENTPD2; assay: Hybridoma mAb screen: cell-based assay for inhibition of ATP hydrolysis by ENTPD2; details: hybridoma-derived mAbs
From the text: Hybridoma-derived mAbs were screened in a cell-based assay for inhibition of ATP hydrolysis by ENTPD2.

Molecule | % Inhibition at 100 nM (±Std Err) [1] | inhibition of the catalytic activity of recombinant human ENTPD2 [2] | inhibition of ATP hydrolysis by ENTPD2 [3]
B1 | 79 ± 2.2% | – | –
B2 | 76 ± 3.4% | – | –
B3 | – | potently inhibit | lead inhibitory mAbs
B4 | – | potently inhibit | –
B5 | – | potently inhibit | –
B6 | – | – | lead inhibitory mAbs
